Residue numbers refer to the chain shown, from its start.

The term Kd denotes the free concentration of one partner at which half of the binding sites on the other are occupied at equilibrium, for simple one-to-one binding. The low end stands for higher affinity, the high end for lower affinity. As usually defined, the koff is a measure of how fast the partners let go of each other. What is called kon is the second-order rate constant of association. Low readings indicate slower complex formation, high ones faster complex formation. As a reminder, the EC50 (read off the curve) is the midpoint of the concentration-response curve.

To fix the notation:
T1: His-tagged human TIGIT-ECD protein (human, UniProt Q495A1 22-141)
T1 construct: extracellular domain; also called hTIGIT-his
T1 sequence (looked up): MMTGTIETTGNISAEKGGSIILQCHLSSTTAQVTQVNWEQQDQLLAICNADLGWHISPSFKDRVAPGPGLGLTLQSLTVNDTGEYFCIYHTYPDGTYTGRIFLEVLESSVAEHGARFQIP

B1: ASP-3P-46 (VHH)
VHH: QVQLVESGGGLVQPGGSLRLSCAASARSINGMEWYRQAPGERRELVAGITAGGSAYYTDTVKGRFTISRDNAENTGYLQMNSLSPDDTAVYYCRRQYGPNWYWGQGTQVTVSS
notes: also called ASP-30-46
B2: ALP-Tan-3p-93 (VHH)
VHH: QVQLVESVGGLVQPGDSLRLSCLASGRTFTFRHYVMGWFRQAPGKEREFVAAISWSGSGSYYADSVKGRFTISRDNSKNMVFLQMNGLKPEDTAVYYCAADMTTRMSQASREYDYWGQGTQVTVSS
B3: ALP-Tan-3p-112 (VHH)
VHH: QVQLVESGGGLVQPGGSLRLSCAASGSIFSSGTNFSDSKIDWYRQAPGKQRDWIAGIFSTGSTIYEDSVKGRFAISRDNAKNMGYLQMNSLKPEDTAVYYCRVIGRGILAWGQGTQVTVSS
B4: TIGIT-Fc-93-VH6 (bispecific antibody, human IgG1, kappa)
heavy: not shown
light: DIVMTQSPSSLSASVGDRVTITCKASQDVDTAVAWYQQKPGKAPKLLIYWASARHTGVPSRFSGSGSGTDFTFTISSLQPEDIATYYCQQYSNYPLTFGQGTKLEIKRTVAAPSVFIFPPSDEQLKSGTASVVCLLNNFYPREAKVQWKVDNALQSGNSQESVTEQDSKDSTYSLSSTLTLSKADYEKHKVYACEVTHQGLSSPVTKSFNRGEC
notes: Two 93-VH6 fused to the C-termini of the anti-TIGIT heavy chains; also called TIGIT-Fc-PD-L1 format
B5: TIGIT-Fc-93-VH6*2 (bispecific antibody, human IgG1, kappa)
heavy: not shown
light: B4 light
notes: Four 93-VH6, two in tandem at the C-terminus of each anti-TIGIT heavy chain; also called TIGIT-Fc-PD-93-VH6*2; TIGIT-Fc-PD-L1*2 format
B6: TIGIT-CL-93-VH6 (bispecific antibody, human IgG1, kappa)
heavy: not shown
light: DIVMTQSPSSLSASVGDRVTITCKASQDVDTAVAWYQQKPGKAPKLLIYWASARHTGVPSRFSGSGSGTDFTFTISSLQPEDIATYYCQQYSNYPLTFGQGTKLEIKRTVAAPSVFIFPPSDEQLKSGTASVVCLLNNFYPREAKVQWKVDNALQSGNSQESVTEQDSKDSTYSLSSTLTLSKADYEKHKVYACEVTHQGLSSPVTKSFNRGECGGGGSGGGGSGGGGSGGGGSEVQLVESGGGLVQPGGSLRLSCAASGFTFTFRHYVMGWFRQAPGKEREFVAAISWSGSGSYYADSVKGRFTISRDNSKNTVYLQMNSLRAEDTAVYYCAADMTTRMSQASREYDYWGQGTLVTVSS
notes: Two 93-VH6 fused to the C-termini of the anti-TIGIT light chains; also called TIGIT-CL-PD-L1 format
B7: TIGIT antibody (antibody, V domains shown)
VH: EVKLVESGGGLVQPGGSLRLSCAASGFTFSDYYMYWVRQAPGKRLEWVASITKGGGSTYYPDTLKGRFTISRDNAKNSLYLQMNRLRAEDTAVYYCARQSSYDFVMDYWGQGTTVTVSS
VL: DIVMTQSPSSLSASVGDRVTITCKASQDVDTAVAWYQQKPGKAPKLLIYWASARHTGVPSRFSGSGSGTDFTFTISSLQPEDIATYYCQQYSNYPLTFGQGTKLEIK
notes: Only variable domains are tied to the parental antibody; also called TIGIT Ab; parental TIGIT antibody
B8: 93-VH-2 (VHH)
VHH: EVQLVESGGGLVQPGGSLRLSCAASGFTFTFRHYVMGWVRQAPGKEREWVSAISWSGSGSYYADSVKGRFTISRDNSKNTVYLQMNSLRAEDTAVYYCAADMTTRMSQASREYDYWGQGTLVTVSS
notes: Humanized
B9: 93-VH-5 (VHH)
VHH: B8 VHH with V39F, W49F, S51A, V81L, A100K
notes: Humanized
B10: 93-VH-7 (VHH)
VHH: B8 VHH with V39F, E46G, R47L, W49F, S51A, V81L
notes: Humanized
B11: 93-VH-4 (VHH)
VHH: B8 VHH with V39F, E46G, R47L, W49F, S51A
notes: Humanized
B12: 93-VH-9 (VHH)
VHH: B8 VHH with F27R, V39F, E46G, R47L, W49F, S51A, V81L
notes: Humanized
B13: 93-VH-3 (VHH)
VHH: B8 VHH with V39F, E46G, R47L, W49F, S51A, V81L, A100K
notes: Humanized
B14: ALP-Tan-3p-93 (chimeric) (antibody, V domains shown, not shown: a dimerising Fc or GST; small tags and cut ends)
VH: B2 VHH
notes: Called chimeric; also called ALP-Tan-3p-93 chimeric antibody
B15: 93-VH-8 (VHH)
VHH: B8 VHH with F27R, V39F, E46G, R47L, W49F, S51A
notes: Humanized
B16: 112-VHH5-PTM (VHH)
VHH: B3 VHH with Q1E, N34Q, I54V, M83S, G84L, K92R, P93A, Q116L
notes: Humanized
B17: 112-VHH7-PTM (VHH)
VHH: B3 VHH with Q1E, N34Q, D52E, G84L, K92R, P93A, Q116L
notes: Humanized
B18: ALP-Tan-3p-112 (chimeric) (antibody, V domains shown, not shown: a dimerising Fc or GST; small tags and cut ends)
VH: B3 VHH
notes: Called chimeric
B19: 112-VHH3-PTM (VHH)
VHH: EVQLVESGGGLVQPGGSLRLSCAASGSIFSSGTQFSDSKIDWYRQAPGKQREWVSGIFSTGSTIYEDSVKGRFTISRDNAKNSLYLQMNSLRAEDTAVYYCRVIGRGILAWGQGTLVTVSS
notes: Humanized
B20: 34C5 (antibody, V domains shown)
VH: QVQLVQSGAEVKKPGSSVKVSCKASGYTFSSYYMHWVRQAPGQGLEWMGEINPNNARINFNEKFKTRVTLTVDKSTSTAYMELSSLRSEDTAVYYCTRGYYRYGAWFGYWGQGTLVTVSS
VL: DIQMTQSPSSLSASVGDRVTITCRASQDISDYLNWYQQKPGKAPKLLIYYISRLHSGVPSRFSGSGSGTDYTLTISSLQPEDFATYYCQQGHTLPWTFGGGTKVEIK
notes: also called anti-CD47 antibody 34C5; parental CD47 antibody 34C5
B21: 13H3 (antibody, V domains shown)
VH: EVQLVESGGGLVKPGGSLRLSCAASGLTFERAWMNWVRQAPGKGLEWVGRIKRKTDGETTDYAAPVKGRFSISRDDSKNTLYLQMNSLKTEDTAVYYCAGSNRAFDIWGQGTMVTVSS
VL: DIVMTQSPDSLAVSLGERATINCKSSQSVLYAGNNRNYLAWYQQKPGQPPKLLINQASTRASGVPDRFSGSGSGTEFTLIISSLQAEDVAIYYCQQYYTPPLAFGGGTKLEIK
notes: also called anti-CD47 antibody 13H3; parental CD47 antibody 13H3

The target in one assay is T2, human PD-L1-his (human, UniProt Q9NZQ7 19-238).
T2 construct: also called hPD-L1-his; human His-PD-L1
T2 sequence (Q9NZQ7 19-238 limits assumed): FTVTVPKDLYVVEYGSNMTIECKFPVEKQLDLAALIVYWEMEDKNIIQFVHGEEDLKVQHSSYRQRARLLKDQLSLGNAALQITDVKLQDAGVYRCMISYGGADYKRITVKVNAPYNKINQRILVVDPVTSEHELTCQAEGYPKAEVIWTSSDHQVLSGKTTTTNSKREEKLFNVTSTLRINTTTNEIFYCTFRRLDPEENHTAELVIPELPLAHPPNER
The assay is described as follows: SPR, Biacore T200. In general terms: SPR reads the build-up and loss of mass on a sensor chip optically.
For B1, binding was put at a Kd of 1.81 nM, the koff was determined as 0.00128 s⁻¹ and the kon was found to be 710000 M⁻¹ s⁻¹.

In turn, B2 showed a Kd of 0.459 nM, a koff of 7.8e-05 s⁻¹ and a kon of 154000 M⁻¹ s⁻¹.

For B3, the Kd is 0.479 nM, the koff was found to be 0.000235 s⁻¹ and the kon worked out at 490000 M⁻¹ s⁻¹.

In the next assay the target is T1, His-tagged human TIGIT-ECD protein. The assay is described as follows: ELISA on His-tagged human TIGIT. A general note: In an ELISA, binding on a coated surface is turned into a signal by an enzyme label.
Regarding B4, the “EC50 (read off the curve)” value is approximately 0.5 nM.

For B5, the “EC50 (read off the curve)” value was approximately 0.6 nM.

As for B6, the “EC50 (read off the curve)” value is approximately 0.5 nM.

Consider B7, for which the “EC50 (read off the curve)” value was approximately 0.2 nM.

The target in another assay is T2, human PD-L1-his. The assay can be described thus: SPR, Biacore, full kinetics, antigen 100-1.5625 nM.
B8 had a Kd of 26.3 nM, a koff of 0.00162 s⁻¹ and a kon of 61500 M⁻¹ s⁻¹.

Molecule B9 registered a Kd of 2.77 nM, a koff of 0.00125 s⁻¹ and a kon of 452000 M⁻¹ s⁻¹.

Consider B10, for which binding was characterised by a dissociation constant (Kd) of 3.87 nM, the koff stood at 0.000339 s⁻¹ and the kon turned out to be 87600 M⁻¹ s⁻¹.

Molecule B11 displayed a Kd of 1.82 nM, a koff of 0.000147 s⁻¹ and a kon of 80500 M⁻¹ s⁻¹.

Consider B12, for which the affinity, expressed as Kd, was 2.2 nM; the off-rate (koff) amounted to 0.00031 s⁻¹; the kon was 140000 M⁻¹ s⁻¹.

The molecule B13 showed a Kd of 2.36 nM, a koff of 0.00115 s⁻¹ and a kon of 486000 M⁻¹ s⁻¹.

Consider B14, for which binding was put at a Kd of 0.559 nM, the koff is 0.000107 s⁻¹ and the kon stood at 192000 M⁻¹ s⁻¹.

The molecule B15 displayed a Kd of 1.8 nM, a koff of 0.000239 s⁻¹ and a kon of 133000 M⁻¹ s⁻¹.

In turn, B16 had a Kd of 0.92 nM, a koff of 0.00149 s⁻¹ and an association rate constant (kon) of 1.62e+06 M⁻¹ s⁻¹.

In the case of B17, binding was characterised by a dissociation constant (Kd) of 2.32 nM, the koff was determined as 0.00393 s⁻¹ and the kon was found to be 1.69e+06 M⁻¹ s⁻¹.

In turn, B18 gave a Kd of 0.264 nM, a koff of 0.000566 s⁻¹ and a kon of 2.14e+06 M⁻¹ s⁻¹.

Take B19: the Kd was 2.4 nM, the koff was 0.00498 s⁻¹ and the kon is 2.07e+06 M⁻¹ s⁻¹.

A further assay has as its target T2, human PD-L1-his. The assay can be described thus: SPR, Biacore T200, antibody captured on protein A chip, hPD-L1-his 6.25-100 nM as analyte. Here is the method:
The binding affinity of the PD-L1/TIGIT bsAb to recombinant human his-tagged PD-L1 protein was tested by BIACORE®. […] A series of dilutions of human PD-L1 protein (6.25 nM-100 nM) were injected over captured antibody at a flow rate of 10 μL/min. The antigen was allowed to associate for 180 s and dissociate for 1200 s. All the experiments were carried out on a Biacore T200. Data analysis was carried out using Biacore T200 evaluation software.
B4 gave a Kd of 1.15 nM, a koff of 4.25e-05 s⁻¹ and a kon of 37100 M⁻¹ s⁻¹.

For the molecule B5, the Kd came out at 5.4 nM, the koff came out at 0.000118 s⁻¹ and the kon was found to be 21900 M⁻¹ s⁻¹.

B6 showed a Kd of 3.97 nM, a koff of 0.000143 s⁻¹ and a kon of 35900 M⁻¹ s⁻¹.

For the next assay, the target named is T1, His-tagged human TIGIT-ECD protein. The assay is described as follows: SPR, Biacore T200, antibody captured on protein A chip, hTIGIT-his 0.78-12.5 nM as analyte. From the text: The antibodies were captured by Protein A chip. […] The association phase was 180 s and the dissociation phase was 1200 s.
On to B4, for which the Kd was 0.112 nM, the koff stood at 0.000139 s⁻¹ and the kon is 1.24e+06 M⁻¹ s⁻¹.

Consider B5, for which the Kd worked out at 0.0912 nM, the koff turned out to be 0.000131 s⁻¹ and the on-rate constant (kon) worked out at 1.43e+06 M⁻¹ s⁻¹.

For B6, the affinity, expressed as Kd, was 0.103 nM; the koff came to 0.000176 s⁻¹; the kon worked out at 1.72e+06 M⁻¹ s⁻¹.

In the case of B7, the Kd came out at 0.144 nM, the koff worked out at 0.000172 s⁻¹ and the kon came out at 1.19e+06 M⁻¹ s⁻¹.

Another assay deals with T2, human PD-L1-his. The assay is described as follows: ELISA, plate coated with human His-PD-L1, detection goat anti-human IgG Fc HRP [panel A]. An excerpt: Binding of the anti-PD-L1/TIGIT bsAb molecules with human PD-L1 was further analyzed by ELISA.
As to B4, the “EC50 (read off the curve)” value was approximately 2 nM.

With B5, the “EC50 (read off the curve)” value was approximately 0.8 nM.

For B6, the “EC50 (read off the curve)” value is approximately 1 nM.

The next assay deals with T3, Tag1-CD47 (UniProt Q08722 19-139).
T3 construct: Bought kit reagent
T3 sequence (Q08722 19-139 limits assumed): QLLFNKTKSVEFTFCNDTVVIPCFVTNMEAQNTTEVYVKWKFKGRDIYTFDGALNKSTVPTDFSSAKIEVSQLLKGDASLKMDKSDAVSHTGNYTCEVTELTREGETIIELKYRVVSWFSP
The assay can be described thus: HTRF CD47/SIRPα binding assay (Cisbio): blocking of Tag2-SIRPa binding to Tag1-CD47; axis numbers -3 to 3 read as log10 of nM. An excerpt:
Fluorescence data were read on a PerkinElmer Envision plate reader using laser as light source.
For orientation: TR-FRET usually uses a lanthanide donor and a delayed reading to cut background.
For B20, the “IC50 (read off the curve)” value was approximately 0.7 nM.

Take B21: the “IC50 (read off the curve)” value was approximately 1 nM.
